Data set [1] concerns the molecule itself. Briefly: AUC; sedimentation velocity, 50,000 rpm, 20 °C, Working Buffer (20 mM HEPES, 0.1 M NaCl, pH 7.5, 2 mM n-octyl-β-D-glucopyranoside); 10 μM, 31 μM and 100 μM; c(s) analysis; monomer to dimer.
For a further data set, the target named is O83132. The description is as above.

This is an account of results in paper PMC10194888 (PLOS ONE, 2023).

B1: TP0094 (putative phosphotransacetylase, Pta) of Treponema pallidum, wild-type (enzyme, UniProt O83132 1-336, looked up)
chain: MTFVESMQRRAVLAQKRLVLPEACEQRTLEAARLIVFRNIAAKVFLVGCERDIKNTADRCGIDLTDMVVIDPSVSKHRDQFAERYFQKRKHKGISLAQAAEDMRDPLRFAAMMLDQGHADAMVAGAENTTARVLRAGLTIIGTLPSVKTASSCFVMDTNNPRLGGTRGLFIFSDCAVIPTPTAEQLADIACSAAESCRTFIGEEPTVALLSYSTKGSGGDSDENILRVREAVRILHERRVDFTFDGELQLDAALVPKITEKKAPHSPITGKVNTLVFPDLSSGNIGYKLVQRLSDADAYGPFLQGFAKPLSDLSRGCSVEDIVAACAVTLVQSNGR
notes: TP0094, putative phosphotransacetylase (Pta; EC 2.3.1.8) of Treponema pallidum; DNA fragment encoding all amino-acid residues of TP0094; also called TpPta; WT TP0094; source: E. coli BL21 AI (co-transformed with pGroESL), purified
On to B1, for which the “stoichiometry N” value in data set [1] was 2. Besides, the “mass purity of the dimer” value with O83132 is listed as “we estimate the mass purity of the dimer to range from 95–97%”.

A word on the stoichiometry N: it is the number of molecules, sites or subunits per partner or assembly.
